According to patent US20240109974A1 (SHANDONG SIMCERE BIOPHARMACEUTICAL, published 2024):

T1: human TNFR2 on the surface of CHO-TNFR2 cells (human, UniProt P20333 23-461)
T1 construct: whole, on cells
T1 sequence (looked up): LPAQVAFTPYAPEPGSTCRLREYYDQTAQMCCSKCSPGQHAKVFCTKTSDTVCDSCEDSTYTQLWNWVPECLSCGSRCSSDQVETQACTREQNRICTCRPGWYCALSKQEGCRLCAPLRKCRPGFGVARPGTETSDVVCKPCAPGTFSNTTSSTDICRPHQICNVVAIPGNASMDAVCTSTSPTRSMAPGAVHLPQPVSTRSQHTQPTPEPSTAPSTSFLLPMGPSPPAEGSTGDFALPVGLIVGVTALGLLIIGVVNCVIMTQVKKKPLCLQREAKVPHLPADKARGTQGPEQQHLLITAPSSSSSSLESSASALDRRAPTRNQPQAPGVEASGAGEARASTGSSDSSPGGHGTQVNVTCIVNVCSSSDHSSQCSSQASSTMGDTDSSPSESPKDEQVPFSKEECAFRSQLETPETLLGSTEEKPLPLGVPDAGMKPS

T2: human TNFR2 (Novoprotein, Cat #C830) (human, UniProt P20333 23-257, limits assumed)
T2 construct: construct not described; also called human TNFR2 protein
T2 sequence (looked up): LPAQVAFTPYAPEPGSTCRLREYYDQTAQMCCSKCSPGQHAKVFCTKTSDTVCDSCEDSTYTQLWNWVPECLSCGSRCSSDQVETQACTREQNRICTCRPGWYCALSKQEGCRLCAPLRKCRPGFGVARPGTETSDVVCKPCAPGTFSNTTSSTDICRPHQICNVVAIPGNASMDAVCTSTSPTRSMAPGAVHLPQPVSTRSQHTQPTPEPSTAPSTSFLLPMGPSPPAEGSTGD


Experiments:
[1] = target: T1, human TNFR2 on the surface of CHO-TNFR2 …; assay: flow cytometry on CHO-TNFR2 cells; AUC against 001-WT
Protocol: (§1) The transfected full-length plasmid of human TNFR2 was purchased from Sino Biological (Cat #HG10417-UT, NCBI Ref Seq: NM_001066.2). The experiment was conducted at a cell density within 80%. The cell medium was discarded; the cells were rinsed with PBS, and digested with 1 ml trypsin for 2 minutes; the digestion was stopped with a Ham's F12 complete medium containing 10% FBS, and then a cell suspension was made. The cell suspension was counted, and then an appropriate amount of cell suspension was centrifuged at 350×g; the supernatant was discarded; a corresponding volume of blocking solution (10% FBS+PBS) at a density of 1×10⁷ cells/ml was added to resuspend the cells, and the mixture was incubated at 4° C. for 30 minutes. After the incubation, the mixture was centrifuged at 350×g to remove the supernatant, and the cells were resuspended in a staining buffer (2% FBS+PBS) to a density of 2×10⁶ cells/ml, and spread onto a 96-well plate, with 50 μl of cell suspension added to each well for later use. The antibody was diluted with PBS for 10-fold gradient dilution from the highest concentration of 20 μg/m (twice the concentration); the diluted antibody was added to the well containing 50 μl of cell suspension, and placed on a microplate shaker for shaking at 500 rpm for 1 minute, so that the antibody was fully mixed with the cells; the mixture was incubated at 4° C. for 1 h. After the incubation, the cells were washed twice with the staining buffer, with 100 μl per well, and centrifuged at 350-g for 5 minutes, and the supernatant was discarded. The PE goat anti-Human IgG Fc antibody (ebioscience, Cat #12-4998-82) was diluted 250-fold with the staining buffer, with a volume of 100 μl per well added to the washed cell wells; the mixture was mixed evenly, and stained at 4° C. for 30 minutes. After the staining, similarly, the cells were washed twice with the staining buffer; finally, the cells were resuspended in 200 μl of staining buffer; signals were detected by a flow cytometer (Thermo Attune NxT). The stronger the signal, the stronger the binding ability of an antibody to TNFR2. The binding curve of an antibody was drawn with antibody concentration as the abscissa and corresponding mean fluorescence intensity (MFI) fold as the ordinate, and fitted with four parameters (GraphPad Prism9) to calculate the EC50 value.

[2] = target: T1, human TNFR2 on the surface of CHO-TNFR2 …; assay: flow cytometry on CHO-TNFR2 cells; AUC against 224-WT
Protocol: as §1

[3] = target: T2, human TNFR2 (Novoprotein, Cat #C830); assay: competition ELISA, competitor human TNFα-Biotin; AUC against 224-WT
Protocol: 1 μg/ml human TNFR2 (Novoprotein, Cat #C830) was pre-coated with 100 μl/well […] in an ELISA plate. All the test TNFR2 antibodies were subjected to 2.5-fold gradient dilution from the highest concentration of 30 μg/ml; the diluted antibodies were mixed with 15 ng/ml human TNFα-Biotin (Acro Biosystem, Cat #TNA-H82E3) in equal volume, respectively; the resulting mixture was added to the ELISA plate at 100 μl/well, and incubated with shaking at room temperature for 2.0 hours. The plate was washed, and then a Streptavidin-HRP working solution (diluted at 1:10000) was added at 100 μl/well, and the mixture was incubated with shaking at room temperature for 40 minutes. The plate was washed again, and then the substrate TMB of HRP was added to develop colour. A stop solution was added to stop the reaction, and then a microplate reader (MD 13) was used to read the absorbance value. The inhibitory curve of an antibody was drawn with antibody concentration as the abscissa and corresponding OD value as the ordinate, and fitted with four parameters (GraphPad Prism9) to calculate the IC50 value. The smaller the IC50 value, the stronger the ability of an antibody to inhibit the binding of human TNFα to human TNFR2. The blocking effect of a humanized antibody was normalized to its corresponding human-murine chimeric antibody WT. The higher the percentage value, the better the inhibitory effect of the humanized antibody.

Row | % Relative activity (Test antibody/WT antibody) [1] | % Relative activity (Test antibody/WT antibody) [2] | % Relative activity (WT antibody/test antibody) [3] | Binder
1 | 87.8% |  |  | 001-Hu5 (antibody, V domains shown, Humanized form of #001; also called VH1 + VL4) VH: EVQLVESGGGLVQPGGSLRLSCAASGFAFSTYDLSWVRQAPGKGLEWVAYINNGGISTYYSDTVKGRFTISRDNAKNTLYLQMNSLRAEDTAVYYCVRGPFYGSANYFDYWGQGTLVTVSS VL: DIQMTQSPSSLSASVGDRVTITCRTSESIYSNLPWYQQKPGKSPKLLVYDATKLAEGVPSRFSGSGSGTDYTLTISSLQPEDFATYYCQHFWVTPWTFGQGTKVEIK
2 | 87.8% |  |  | 001-Hu3 (antibody, V domains shown, Humanized form of #001; also called VH1 + VL3) VH: EVQLVESGGGLVQPGGSLRLSCAASGFAFSTYDLSWVRQAPGKGLEWVAYINNGGISTYYSDTVKGRFTISRDNAKNTLYLQMNSLRAEDTAVYYCVRGPFYGSANYFDYWGQGTLVTVSS VL: DIQMTQSPSSLSASVGDRVTITCRTSESIYSNLPWYQQKPGKAPKLLIYDATKLAEGVPSRFSGSGSGTDYTLTISSLQPEDFATYYCQHFWVTPWTFGQGTKVEIK
3 | 92.2% |  |  | 001-Hu4 (antibody, V domains shown, Humanized form of #001; also called VH2 + VL4) VH: EVQLVESGGGLVQPGGSLRLSCAASGFAFSTYDLSWVRQAPGKGLEWVAYINNGGISTYYSDTVKGRFTISRDNAKNSLYLQMNSLRAEDTAVYYCVRGPFYGSANYFDYWGQGTLVTVSS VL: DIQMTQSPSSLSASVGDRVTITCRTSESIYSNLPWYQQKPGKSPKLLVYDATKLAEGVPSRFSGSGSGTDYTLTISSLQPEDFATYYCQHFWVTPWTFGQGTKVEIK
4 | 88.2% |  |  | 001-Hu2 (antibody, V domains shown, Humanized form of #001; also called VH2 + VL2) VH: EVQLVESGGGLVQPGGSLRLSCAASGFAFSTYDLSWVRQAPGKGLEWVAYINNGGISTYYSDTVKGRFTISRDNAKNSLYLQMNSLRAEDTAVYYCVRGPFYGSANYFDYWGQGTLVTVSS VL: DIQMTQSPSSLSASVGDRVTITCRTSESIYSNLPWYQQKPGKSPKLLIYDATKLAEGVPSRFSGSGSGTDFTLTISSLQPEDFATYYCQHFWVTPWTFGQGTKVEIK
5 | 93.4% |  |  | 001-Hu1 (antibody, V domains shown, Humanized form of #001; also called VH1 + VL1) VH: EVQLVESGGGLVQPGGSLRLSCAASGFAFSTYDLSWVRQAPGKGLEWVAYINNGGISTYYSDTVKGRFTISRDNAKNTLYLQMNSLRAEDTAVYYCVRGPFYGSANYFDYWGQGTLVTVSS VL: DIQMTQSPSSLSASVGDRVTITCRTSESIYSNLPWYQQKPGKAPKLLLYDATKLAEGVPSRFSGSGSGTDYTLTISSLQPEDFATYYCQHFWVTPWTFGQGTKVEIK
6 |  | 96.2% | 98.8% | 224-Hu1 (antibody, V domains shown, Humanized form of #224; also called VH8 + VL6) VH: QVQLVQSGAEVKKPGASVKVSCKASGFNNKDIYMHWVRQAPGQGLEWIGRIDPATGNTKHDPKFQDRVTMTSDTSTNTVYMELSSLRSEDTAVYYCARSPYGDFGAMDYWGQGTLVTVSS VL: DIQMTQSPSSLSASVGDRVTITCTASSSVSSNYLHWYQQKPGKAPKLWIYSTSNLPSGVPSRFSGSGSGTDFTLTISSLQPEDFATYYCHQYHRSPWTFGQGTKVEIK
7 |  | 91% | 100% | 224-Hu7 (antibody, V domains shown, Humanized form of #224; also called VH9 + VL10) VH: QVQLVQSGSELKKPGASVKVSCKASGFNNKDIYMHWVRQAPGQGLEWMGRIDPATGNTKHDPKFQDKAVLSSDTSVSTAYLQISSLKAEDTAVYYCARSPYGDFGAMDYWGQGTLVTVSS VL: DIQMTQSPSSLSASVGDRVTITCTASSSVSSNYLHWYQQKPGKAPKLLIYSTSNLPSGVPSRFSGSGSGTDFTLTISSLQPEDFATYYCHQYHRSPWTFGQGTKVEIK
8 |  | 88.9% | 97.2% | 224-Hu5 (antibody, V domains shown, Humanized form of #224; also called VH9 + VL9) VH: QVQLVQSGSELKKPGASVKVSCKASGFNNKDIYMHWVRQAPGQGLEWMGRIDPATGNTKHDPKFQDKAVLSSDTSVSTAYLQISSLKAEDTAVYYCARSPYGDFGAMDYWGQGTLVTVSS VL: DIQMTQSPSSLSASVGDRVTITCTASSSVSSNYLHWYQQKPGKAPKLLIYSTSNLPSGVPSRFSGSGSGTDYSLTISSLQPEDFATYYCHQYHRSPWTFGQGTKVEIK
9 |  | 93.1% | 100% | 224-Hu4 (antibody, V domains shown, Humanized form of #224; also called VH9 + VL6) VH: QVQLVQSGSELKKPGASVKVSCKASGFNNKDIYMHWVRQAPGQGLEWMGRIDPATGNTKHDPKFQDKAVLSSDTSVSTAYLQISSLKAEDTAVYYCARSPYGDFGAMDYWGQGTLVTVSS VL: DIQMTQSPSSLSASVGDRVTITCTASSSVSSNYLHWYQQKPGKAPKLWIYSTSNLPSGVPSRFSGSGSGTDFTLTISSLQPEDFATYYCHQYHRSPWTFGQGTKVEIK
10 |  | 101% | 102% | 224-Hu2 (antibody, V domains shown, Humanized form of #224; also called VH9 + VL7) VH: QVQLVQSGSELKKPGASVKVSCKASGFNNKDIYMHWVRQAPGQGLEWMGRIDPATGNTKHDPKFQDKAVLSSDTSVSTAYLQISSLKAEDTAVYYCARSPYGDFGAMDYWGQGTLVTVSS VL: DIQMTQSPSSLSASVGDRVTITCTASSSVSSNYLHWYQQKPGSSPKLWIYSTSNLPSGVPSRFSGSGSGTDFTLTISSLQPEDFATYYCHQYHRSPWTFGQGTKVEIK
11 |  | 101% | 98.2% | 224-Hu3 (antibody, V domains shown, Humanized form of #224; also called VH9 + VL8) VH: QVQLVQSGSELKKPGASVKVSCKASGFNNKDIYMHWVRQAPGQGLEWMGRIDPATGNTKHDPKFQDKAVLSSDTSVSTAYLQISSLKAEDTAVYYCARSPYGDFGAMDYWGQGTLVTVSS VL: DIQMTQSPSSLSASVGDRVTITCTASSSVSSNYLHWYQQKPGKAPKLLIYSTSNLPSGVPSRFSGSGSGTDFTLTISSLQAEDAATYYCHQYHRSPWTFGQGTKVEIK
12 |  | 90.4% | 100% | 224-Hu6 (antibody, V domains shown, Humanized form of #224; also called VH8 + VL7) VH: QVQLVQSGAEVKKPGASVKVSCKASGFNNKDIYMHWVRQAPGQGLEWIGRIDPATGNTKHDPKFQDRVTMTSDTSTNTVYMELSSLRSEDTAVYYCARSPYGDFGAMDYWGQGTLVTVSS VL: DIQMTQSPSSLSASVGDRVTITCTASSSVSSNYLHWYQQKPGSSPKLWIYSTSNLPSGVPSRFSGSGSGTDFTLTISSLQPEDFATYYCHQYHRSPWTFGQGTKVEIK
